In the assay the target is ALK-1/BMPR-2 receptor pair of the PathHunter U2Os dimerization cells (DiscoverX 93-0962C3) (UniProt P37023 22-503; Q13873 27-1038). As to the kind of experiment: cell-based or functional assay.
Chain of ALK-1/BMPR-2 receptor pair of the PathHunter U2Os dimerization cells (DiscoverX 93-0962C3) (P37023 22-503, chain 1 of 2): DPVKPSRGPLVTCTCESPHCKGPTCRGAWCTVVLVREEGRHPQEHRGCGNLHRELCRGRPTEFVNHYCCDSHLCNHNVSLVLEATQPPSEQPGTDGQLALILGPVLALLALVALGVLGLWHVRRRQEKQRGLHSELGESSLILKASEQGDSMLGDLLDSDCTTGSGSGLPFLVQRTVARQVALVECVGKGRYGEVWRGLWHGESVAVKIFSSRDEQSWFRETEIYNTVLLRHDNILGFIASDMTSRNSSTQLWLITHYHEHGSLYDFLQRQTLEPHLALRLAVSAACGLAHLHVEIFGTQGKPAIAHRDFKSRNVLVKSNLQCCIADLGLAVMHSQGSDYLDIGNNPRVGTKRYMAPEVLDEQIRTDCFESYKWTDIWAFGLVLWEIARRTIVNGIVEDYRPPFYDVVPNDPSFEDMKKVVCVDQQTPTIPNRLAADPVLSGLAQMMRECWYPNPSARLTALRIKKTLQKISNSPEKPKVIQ
Chain of ALK-1/BMPR-2 receptor pair of the PathHunter U2Os dimerization cells (DiscoverX 93-0962C3) (Q13873 27-1038, chain 2 of 2): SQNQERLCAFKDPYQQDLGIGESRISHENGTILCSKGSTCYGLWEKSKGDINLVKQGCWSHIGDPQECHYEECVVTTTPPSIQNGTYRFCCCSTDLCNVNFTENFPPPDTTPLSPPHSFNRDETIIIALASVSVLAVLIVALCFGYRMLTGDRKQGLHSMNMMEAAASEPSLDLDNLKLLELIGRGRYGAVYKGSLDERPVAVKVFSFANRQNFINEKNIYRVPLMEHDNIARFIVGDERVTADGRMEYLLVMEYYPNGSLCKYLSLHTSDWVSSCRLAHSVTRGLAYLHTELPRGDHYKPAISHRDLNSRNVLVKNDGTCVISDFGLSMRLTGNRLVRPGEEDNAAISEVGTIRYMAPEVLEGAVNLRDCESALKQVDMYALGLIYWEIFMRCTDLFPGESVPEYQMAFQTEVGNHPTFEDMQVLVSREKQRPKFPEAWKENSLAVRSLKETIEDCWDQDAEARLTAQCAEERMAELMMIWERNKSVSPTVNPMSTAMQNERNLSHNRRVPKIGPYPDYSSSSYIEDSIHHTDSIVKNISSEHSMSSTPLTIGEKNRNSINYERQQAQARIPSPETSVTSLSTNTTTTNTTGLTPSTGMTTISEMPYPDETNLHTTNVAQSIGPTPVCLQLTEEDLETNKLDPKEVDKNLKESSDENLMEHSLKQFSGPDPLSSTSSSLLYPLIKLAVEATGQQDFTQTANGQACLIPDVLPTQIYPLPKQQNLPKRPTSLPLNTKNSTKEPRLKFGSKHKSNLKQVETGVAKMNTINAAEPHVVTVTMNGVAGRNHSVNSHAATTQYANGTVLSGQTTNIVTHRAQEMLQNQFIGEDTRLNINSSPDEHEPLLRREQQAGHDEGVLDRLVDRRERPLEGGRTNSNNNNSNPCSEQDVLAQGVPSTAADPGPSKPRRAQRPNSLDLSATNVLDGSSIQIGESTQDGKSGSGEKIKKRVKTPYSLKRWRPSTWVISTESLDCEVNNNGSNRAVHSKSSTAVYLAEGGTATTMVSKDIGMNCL

B1: DGL947 (bispecific antibody, human IgG1, lambda)
heavy: EVQLLESGGGLVQPGGSLRLSCAASGFTFSDYYMNWIRQAPGKGLEWVSSISGGSTYYADSVKGRFTISRDNSENTLYLQMNSLRAEDTAVYYCARDFGVAGWFGQFGMDVWGQGTLVTVSSPLAPEVQLLESGGGLVQPGGSLRLSCAASGFTFSSYWMSWVRQAPGKGLEWVANINQDGSEKYYVDSMRGRFTISRDNSKNTLYLQMNSLRAEDTAVYYCAREYDYWGQGTLVTVSSASTKGPSVFPLAPSSKSTSGGTAALGCLVKDYFPEPVTVSWNSGALTSGVHTFPAVLQSSGLYSLSSVVTVPSSSLGTQTYICNVNHKPSNTKVDKKVEPKSCDKTHTCPPCPAPEAAGAPSVFLFPPKPKDTLYITREPEVTCVVVDVSHEDPEVKFNWYVDGVEVHNAKTKPREEQYNSTYRVVSVLTVLHQDWLNGKEYKCKVSNKALPAPIEKTISKAKGQPREPQVYTLPPSRDELTKNQVSLTCLVKGFYPSDIAVEWESNGQPENNYKTTPPVLDSDGSFFLYSKLTVDKSRWQQGNVFSCSVMHEALHNHYTQKSLSLSPG
light: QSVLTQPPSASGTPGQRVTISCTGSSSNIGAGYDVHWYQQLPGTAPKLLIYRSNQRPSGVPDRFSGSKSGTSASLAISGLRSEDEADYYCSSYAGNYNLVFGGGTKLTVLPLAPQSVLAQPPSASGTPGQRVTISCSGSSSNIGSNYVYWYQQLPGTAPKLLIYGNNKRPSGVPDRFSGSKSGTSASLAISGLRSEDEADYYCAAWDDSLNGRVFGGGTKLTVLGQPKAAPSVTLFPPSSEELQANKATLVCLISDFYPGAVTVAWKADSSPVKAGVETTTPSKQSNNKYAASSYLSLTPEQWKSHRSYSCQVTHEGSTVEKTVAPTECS
For B1, the “% Emax BMP9” value is 47%.

B2: DGL949 (bispecific antibody, human IgG1, lambda)
heavy: EVQLLESGGGLVQPGGSLRLSCAASGFTFSDYYMNWIRQAPGKGLEWVSSISGGSTYYADSVKGRFTISRDNSENTLYLQMNSLRAEDTAVYYCARDFGVAGWFGYYGMDVWGQGTLVTVSSPLAPEVQLLESGGGLVQPGGSLRLSCAASGFTFSSYWMSWVRQAPGKGLEWVANIKQDGSEKNYVDSMRGRFTISRDNSKNTLYLQMNSLRAEDTAVYYCAREFDFWGQGTLVTVSSASTKGPSVFPLAPSSKSTSGGTAALGCLVKDYFPEPVTVSWNSGALTSGVHTFPAVLQSSGLYSLSSVVTVPSSSLGTQTYICNVNHKPSNTKVDKKVEPKSCDKTHTCPPCPAPEAAGAPSVFLFPPKPKDTLYITREPEVTCVVVDVSHEDPEVKFNWYVDGVEVHNAKTKPREEQYNSTYRVVSVLTVLHQDWLNGKEYKCKVSNKALPAPIEKTISKAKGQPREPQVYTLPPSRDELTKNQVSLTCLVKGFYPSDIAVEWESNGQPENNYKTTPPVLDSDGSFFLYSKLTVDKSRWQQGNVFSCSVMHEALHNHYTQKSLSLSPG
light: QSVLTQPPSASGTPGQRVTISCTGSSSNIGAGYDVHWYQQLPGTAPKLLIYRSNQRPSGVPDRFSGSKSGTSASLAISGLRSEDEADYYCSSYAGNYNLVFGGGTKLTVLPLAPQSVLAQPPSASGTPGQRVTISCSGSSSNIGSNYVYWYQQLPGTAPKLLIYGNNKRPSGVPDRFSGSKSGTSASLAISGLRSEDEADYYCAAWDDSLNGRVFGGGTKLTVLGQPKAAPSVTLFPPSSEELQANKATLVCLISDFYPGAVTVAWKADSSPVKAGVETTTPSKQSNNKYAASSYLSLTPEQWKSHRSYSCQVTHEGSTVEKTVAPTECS
For B2, the “% Emax BMP9” value was 42%.

B3: DGL1146 (bispecific antibody, human IgG1, lambda)
heavy: EVQLLESGGGLVQPGGSLRLSCAASGFTFSDYYMTWIRQAPGKGLEWVSSISGGSTYYADSRKGRFTISRDNSENTLYLQMNSLRAEDTAVYYCARDFGVAGWFGQYGMDVWGQGTLVTVSSPLAPEVQLLESGGGLVQPGGSLRLSCAASGFTFSSYAMSWVRQAPGKGLEWVANINQDGSEKNYVDSMRGRFTISRDNSKNTLYLQMNSLRAEDTAVYYCAREFDYWGQGTLVTVSSASTKGPSVFPLAPSSKSTSGGTAALGCLVKDYFPEPVTVSWNSGALTSGVHTFPAVLQSSGLYSLSSVVTVPSSSLGTQTYICNVNHKPSNTKVDKKVEPKSCDKTHTCPPCPAPEAAGAPSVFLFPPKPKDTLMISRTPEVTCVVVDVSHEDPEVKFNWYVDGVEVHNAKTKPREEQYNSTYRVVSVLTVLHQDWLNGKEYKCKVSNKALPAPIEKTISKAKGQPREPQVYTLPPSRDELTKNQVSLTCLVKGFYPSDIAVEWESNGQPENNYKTTPPVLDSDGSFFLYSKLTVDKSRWQQGNVFSCSVLHEALHSHYTQKSLSLSPG
light: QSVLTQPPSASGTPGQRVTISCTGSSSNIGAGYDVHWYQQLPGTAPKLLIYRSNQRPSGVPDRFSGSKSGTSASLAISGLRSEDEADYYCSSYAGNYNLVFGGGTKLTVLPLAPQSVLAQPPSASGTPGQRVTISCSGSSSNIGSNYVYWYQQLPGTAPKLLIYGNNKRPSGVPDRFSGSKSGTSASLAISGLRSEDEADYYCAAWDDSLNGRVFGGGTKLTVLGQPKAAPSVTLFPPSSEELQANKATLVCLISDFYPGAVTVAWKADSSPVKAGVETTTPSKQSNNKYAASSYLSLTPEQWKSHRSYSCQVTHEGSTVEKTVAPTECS
As for B3, the “% Emax BMP9” value was 78%.
